Measurements taken from US20090155164A1 (Amgen, published 2009).

B1: anti-c-fms IgG2 clone 2.360 (parent form, PT) (antibody, V domains shown)
VH: QVQLVQSGAEVKKPGASVKVSCKVSGYTLTELSMHWVRQAPGKGLEWMGGFDPEDGETIYAQKFQGRVTMTEDTSTDTVYMELSSLRSEDTAVYYCATGVMITFGGVIVGHSYYGMDVWGQGTTVTVSS
VL: DIQMTQSPSSLSASVGDRVTITCRASQGINNYLAWYQQKPGKVPQLLIYVASTLQSGVPSRFSGSGSGTDFTLTISSLQPEDVATYYCQKYNSGPFTFGPGTKVDIKR
modifications: N-terminal glutamine cyclized to pyroglutamic acid; C-terminal lysine absent
notes: Recombinant human IgG2 kappa from COS/PKB cells
B2: anti-c-fms IgG2 clone 1.2 (parent form, PT) (antibody, V domains shown)
VH: QVQLVQSGAEVKKPGASVKVSCKASGYTFTSYGISWVRQAPGQGLEWMGWISAYNGNTNYAQKLQGRVTMTTDTSTSTAYMELRSLRSDDTAVYYCARESWFGEVFFDYWGQGTLVTVSS
VL: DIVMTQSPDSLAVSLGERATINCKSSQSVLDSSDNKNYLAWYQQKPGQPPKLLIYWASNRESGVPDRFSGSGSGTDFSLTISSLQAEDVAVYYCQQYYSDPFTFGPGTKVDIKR
modifications: N-terminal glutamine cyclized to pyroglutamic acid; C-terminal lysine absent
notes: Recombinant human IgG2 kappa from COS/PKB cells (hybridoma was IgG1); also called 1.2.1; Clone 1.2 PT
B3: anti-c-fms IgG2 clone 1.109 (parent form, PT) (antibody, V domains shown)
VH: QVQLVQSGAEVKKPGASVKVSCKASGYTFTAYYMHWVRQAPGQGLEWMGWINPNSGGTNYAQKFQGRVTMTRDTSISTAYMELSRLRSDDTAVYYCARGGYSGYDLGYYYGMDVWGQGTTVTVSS
VL: DIQMTQSPSSLSASVGDRVTITCQASQNISNFLDWYQQKPGKAPNLLIYDASDLDPGVPSRFSGSGSGTDFTFTISSLQPEDIATYYCQQYVSLPLTFGGGTKVEIKR
modifications: N-linked glycosylation site at Asn-28 in CDR1, reported as likely occupied; N-terminal glutamine cyclized to pyroglutamic acid; C-terminal lysine absent
notes: Recombinant human IgG2 kappa from COS/PKB cells (hybridoma was IgG1)

Columns and labels:
[1] = target: T1, human c-fms, full length, on cells (human, UniProt P07333 20-972); experiment: inhibition of 125I-CSF-1 binding to AML-5 cells; competitor: 125I-CSF-1 (summary table)
T1 construct: whole, on cells; also called CSF-1R
Method: (§1) A saturation radioligand binding experiment was performed in conjunction with each inhibition assay in order to determine both a KD and […] for hCSF-1 binding to c-fms expressed on the surface of AML-5 cells. Mixtures were set up in 96-well round-bottom microtiter plates with total volumes of 150 μl/well. All reagents were diluted in binding media containing 0.2% sodium azide and experiments were conducted at 4° C. to minimize potential receptor internalization and shedding.
Both assays were incubated at 4° C. on a miniorbital shaker for 4 hours, the length of time needed to reach equilibrium as determined in time course experiments. Two 60 μl aliquots of each incubation mixture were transferred to chilled 400 μl polyethylene centrifuge tubes containing 200 μl phthalate oil and spun for 1.5 minutes in a 4° C. tabletop microfuge (Sorvall,) at 9615×g to separate cell associated ¹²⁵I-hCSF-1 from free ¹²⁵I-hCSF-1. The oil tubes were cut, and each cell pellet and supernatant collected in individual 12×75 mm glass tubes and loaded on a COBRA gamma counter (Packard Instrument Company) for cpm measurements. Cpm from duplicate aliquots taken from each well were averaged for analysis.
Mean K₁ values from 2 experiments were reported (see, TABLE 13).

[2] = target: T2, monomeric human c-fms (residues 1-512)-pHis (human, UniProt P07333 20-512); experiment: Biacore, monomeric c-fms
T2 construct: Construct stated as residues 1-512; signal stated as amino acids 1-19 and left out; also called human c-fms (1-512).pHIS; monomeric c-fms
Method: The binding affinities of the somatic mutation corrected antibodies to monomeric c-fms protein were measured by surface plasmon resonance using a Biacore 3000 instrument.
The affinity of human c-fms (1-512). pHIS (Amgen) for the anti-c-fms mAbs was measured by Biacore. Experiments were conducted at 25° C. using a Biacore 3000 instrument (Biacore AB) equipped with a CM4 sensor chip. Sensor chips, amine coupling reagents (EDC (1-ethyl-3(3-dimethylaminopropyl)-carbodiimide hydrochloride), NHS (N-hydroxysuccinimide), and ethanolamine-HCl, pH 8.5), 10 mM sodium acetate, pH 5.5, HBS-EP (0.01 M HEPES pH 7.4, 0.15 M NaCl, 3 mM EDTA, 0.005% v/v Surfactant P20), and 10 mM glycine-HCl, pH 1.5 were purchased from Biacore AB. Bovine serum albumin (BSA, Bovuminar Standard Powder) was purchased from Serological Corporation. AffiniPure Goat Anti-Human IgG, Fcγ Fragment Specific was purchased from Jackson ImmunoResearch Laboratories.
(§2) Other anti-c-fms antibodies were tested in a similar manner, but changes were made to the protocol to account for differences in binding characteristics.

[3] = target: T1, human c-fms, full length, on cells; experiment: inhibition of 125I-hCSF-1 binding to AML-5 cells, 4 C; competitor: 125I-hCSF-1
Method: as §1
For the saturation binding assay, ¹²⁵I-hCSF-1 was serially diluted 2-fold, starting at a concentration of ˜1.7 nM and going out 12 wells to a concentration of ˜1.5 pM. Nonspecific binding was measured at a single concentration of ¹²⁵I-hCSF-1 (˜80 pM, in triplicate) in the presence of a 1,000-fold molar excess of unlabeled hCSF-1, and assumed to be a linear function of the concentration of radiolabeled hCSF-1 present.

[4] = target: T3, avidin-c-fms Ig-like 2 domain only fusion protein (chicken; human, UniProt P07333 85-223); experiment: FACS, biotin beads loaded with the avidin fusion protein; per the sheet's title 1 µg/mL anti C-FMS and 1 µg/mL mouse anti-human IgG Fc-gamma FITC secondary
T3 construct: Captured on biotin beads; also called Ig-like loop 2 alone (TEPG-AQIV); not shown: chicken avidin, N-terminal fusion partner from pCEP4-Avidin(N)

[5] = target: T4, cynomolgus monkey c-fms on primary bone marrow cells (cynomolgus monkey); experiment: cell-based or functional assay
[6] = target: T1, human c-fms, full length, on cells; experiment: cell-based or functional assay
[7] = target: T4, cynomolgus monkey c-fms on primary bone …; experiment: cell-based or functional assay; remark: listed apart in the source
[8] = target: T1, human c-fms, full length, on cells; experiment: cell-based or functional assay; remark: listed apart in the source
[9] = target: T1, human c-fms, full length, on cells; experiment: cell-based or functional assay; remark: listed apart in the source
[10] = target: T2, monomeric human c-fms (residues …); experiment: Biacore 3000, 25 C; mAb captured on goat anti-human IgG Fc, monomeric c-fms(1-512)-pHis analyte, 1:1 fit
Method: (§3) Anti-c-fms 1.2 or 1.2 SM at 0.25 μg/ml was injected over goat anti-human IgG, Fcγ in one flow cell for 2 minutes at 10 μl/min to obtain a surface density of ˜47 RUs. Another flow cell with goat anti-human IgG, Fcγ alone was used as a reference surface. Each assay started with ten cycles of buffer as the analyte to stabilize the signal. […] Each complex was allowed to associate for 2 minutes, and dissociate for 5 minutes. The surfaces were regenerated after each c-fms or buffer injection with a 30-second pulse of 10 mM glycine HCl, pH 1.5 at 100 μl/min, followed by a 30-second injection of buffer.
as §2
(§4) Data was double referenced by subtracting the reference surface responses to remove bulk refractive index changes, and then subtracting the averaged buffer blank response to remove systematic artifacts from the experimental flow cells.

[11] = target: T2, monomeric human c-fms (residues …); experiment: Biacore (summary table)
Method: as §3, §2, §4

[12] = target: T5, avidin-c-fms Ig-like 1 domain fusion protein (chicken; human, UniProt P07333 20-126); experiment: FACS, biotin beads coated with the avidin fusion protein, FITC-1.109 without competitor
T5 construct: Joined through an XhoI site; Captured on biotin beads; also called Ig1 construct; Ig-like loop 1 (IPVI-ALLP); not shown: chicken avidin, N-terminal fusion partner from pCEP4-Avidin(N)
T5 sequence (P07333 20-126 limits assumed): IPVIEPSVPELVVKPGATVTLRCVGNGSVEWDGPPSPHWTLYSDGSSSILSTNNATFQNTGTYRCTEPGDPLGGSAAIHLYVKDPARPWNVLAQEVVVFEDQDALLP

T2 sequence (P07333 20-512): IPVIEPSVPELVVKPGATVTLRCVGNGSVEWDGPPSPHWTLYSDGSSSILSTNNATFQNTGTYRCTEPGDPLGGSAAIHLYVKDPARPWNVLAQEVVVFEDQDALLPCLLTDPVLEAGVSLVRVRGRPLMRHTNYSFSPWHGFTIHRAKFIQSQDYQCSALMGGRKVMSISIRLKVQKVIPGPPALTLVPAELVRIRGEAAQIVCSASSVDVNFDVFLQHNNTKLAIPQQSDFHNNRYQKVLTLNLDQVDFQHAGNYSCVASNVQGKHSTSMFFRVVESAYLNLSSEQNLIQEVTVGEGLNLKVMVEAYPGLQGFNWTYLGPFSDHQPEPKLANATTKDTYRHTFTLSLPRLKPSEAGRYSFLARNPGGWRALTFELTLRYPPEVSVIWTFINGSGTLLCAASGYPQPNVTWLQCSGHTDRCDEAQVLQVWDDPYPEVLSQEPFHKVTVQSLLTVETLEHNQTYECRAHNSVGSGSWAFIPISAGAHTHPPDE
T3 sequence (P07333 85-223 limits assumed): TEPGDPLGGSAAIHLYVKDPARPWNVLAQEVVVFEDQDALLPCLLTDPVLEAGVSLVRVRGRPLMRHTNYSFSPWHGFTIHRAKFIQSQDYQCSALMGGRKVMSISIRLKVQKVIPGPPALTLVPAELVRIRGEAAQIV
T1 sequence (P07333 20-972): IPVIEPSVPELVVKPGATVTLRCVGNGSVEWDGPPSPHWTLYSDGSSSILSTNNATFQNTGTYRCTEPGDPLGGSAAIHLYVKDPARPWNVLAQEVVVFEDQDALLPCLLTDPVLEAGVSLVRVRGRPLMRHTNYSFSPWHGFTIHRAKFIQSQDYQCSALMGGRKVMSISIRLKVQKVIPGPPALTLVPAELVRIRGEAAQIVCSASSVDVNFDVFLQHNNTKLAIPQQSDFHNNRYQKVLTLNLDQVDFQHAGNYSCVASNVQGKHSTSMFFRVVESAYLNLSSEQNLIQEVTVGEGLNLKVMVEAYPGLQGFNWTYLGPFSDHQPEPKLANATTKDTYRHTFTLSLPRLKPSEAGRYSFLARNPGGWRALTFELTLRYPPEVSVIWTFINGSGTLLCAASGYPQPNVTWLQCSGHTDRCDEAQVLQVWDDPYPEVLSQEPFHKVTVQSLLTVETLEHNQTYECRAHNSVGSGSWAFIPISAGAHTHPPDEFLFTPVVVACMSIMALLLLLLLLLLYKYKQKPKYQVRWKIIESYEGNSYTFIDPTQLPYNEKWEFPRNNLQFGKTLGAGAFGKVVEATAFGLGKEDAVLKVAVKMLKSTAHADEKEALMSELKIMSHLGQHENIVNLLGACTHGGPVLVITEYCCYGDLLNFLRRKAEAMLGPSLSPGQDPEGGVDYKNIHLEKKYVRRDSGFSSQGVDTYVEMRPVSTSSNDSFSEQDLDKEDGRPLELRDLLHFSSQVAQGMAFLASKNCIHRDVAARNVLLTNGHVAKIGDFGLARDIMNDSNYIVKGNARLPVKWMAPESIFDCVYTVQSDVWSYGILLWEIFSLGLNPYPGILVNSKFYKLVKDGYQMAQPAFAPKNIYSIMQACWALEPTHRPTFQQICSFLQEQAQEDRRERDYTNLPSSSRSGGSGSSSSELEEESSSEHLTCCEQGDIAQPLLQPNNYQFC

| Binder | Ki [1] [nM] | Kd [2] [nM] | Ki [3] [nM] | binding result [4] | Cynomolgus Bone Marrow Proliferation IC50 [5] [nM] | AML-5 proliferation IC50 [6] [nM] | Cynomolgus bone marrow bioassay IC50 [7] [nM] | AML-5 bioassay IC50 [8] [nM] | antibody concentration that reduced CSF-1-induced pTyr/c-fms to background, 293T/c-fms cells [9] [µg/ml] | Kd [10] [nM] | koff [10] [s⁻¹] | kon [10] [M⁻¹ s⁻¹] | Kd [11] [nM] | antibody concentration that prevented CSF-1-induced pTyr/c-fms, 293T/c-fms cells [9] [µg/ml] | binding result [12] |
| --- | --- | --- | --- | --- | --- | --- | --- | --- | --- | --- | --- | --- | --- | --- | --- |
| B1 | ~0.16 | 0.535 | ~0.16 | no binding (tested: 1 µg/mL) | 0.067 | 0.06 | 0.067 | 0.06 | 1 | 0.535 | 0.000667 | 1.25e+06 | 0.535 |  |  |
| B2 | 0.0085 | 0.516 | 0.0085 | no binding (tested: 1 µg/mL) | 0.078 | 0.027 | 0.078 | 0.027 | 0.1 | 0.516 | 0.00198 | 3.84e+06 | 0.516 | ≥ 0.1 |  |
| B3 | 0.0135 | 0.051 | 0.0135 | no binding (tested: 1 µg/mL) | 0.016 | 0.027 | 0.016 | 0.027 | 0.1 | 0.051 | 0.000129 | 2.54e+06 | 0.051 | ≥ 0.1 | no binding (tested: 1 µg/ml) |
